For experiment [1], the target named is T1, human IL-23R on Kit-225 cells (human, UniProt Q5VWK5 24-629).
T1 sequence: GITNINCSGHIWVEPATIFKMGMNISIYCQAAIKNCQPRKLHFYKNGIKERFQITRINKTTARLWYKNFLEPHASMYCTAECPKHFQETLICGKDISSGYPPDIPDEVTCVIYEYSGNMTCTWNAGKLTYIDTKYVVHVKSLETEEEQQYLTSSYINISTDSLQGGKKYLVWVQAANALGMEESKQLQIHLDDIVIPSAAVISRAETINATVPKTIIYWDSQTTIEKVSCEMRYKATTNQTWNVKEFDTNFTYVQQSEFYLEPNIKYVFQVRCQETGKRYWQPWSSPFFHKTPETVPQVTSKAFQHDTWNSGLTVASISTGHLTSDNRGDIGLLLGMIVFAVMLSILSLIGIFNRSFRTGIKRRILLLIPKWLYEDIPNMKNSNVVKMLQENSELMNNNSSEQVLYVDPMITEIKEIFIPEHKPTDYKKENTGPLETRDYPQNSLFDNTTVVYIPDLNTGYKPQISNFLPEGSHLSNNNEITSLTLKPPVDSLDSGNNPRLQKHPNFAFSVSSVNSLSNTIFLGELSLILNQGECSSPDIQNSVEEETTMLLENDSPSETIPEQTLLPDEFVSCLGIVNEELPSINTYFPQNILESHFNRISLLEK
As to the kind of experiment: cell-based or functional assay.

For experiment [2], the target named is T2, human IL-23R-mouse Fc fusion protein (human; mouse, UniProt Q5VWK5 24-353).
T2 construct: Expressed in FreeStyle 293 cells; also called human IL-23R-Fc fusion protein; not shown: Fc region of mouse immunoglobulin IgG2a as encoded by vector pFUSE-mIgG2A-Fc2 (InvivoGen); limits and any linker not sta
T2 sequence: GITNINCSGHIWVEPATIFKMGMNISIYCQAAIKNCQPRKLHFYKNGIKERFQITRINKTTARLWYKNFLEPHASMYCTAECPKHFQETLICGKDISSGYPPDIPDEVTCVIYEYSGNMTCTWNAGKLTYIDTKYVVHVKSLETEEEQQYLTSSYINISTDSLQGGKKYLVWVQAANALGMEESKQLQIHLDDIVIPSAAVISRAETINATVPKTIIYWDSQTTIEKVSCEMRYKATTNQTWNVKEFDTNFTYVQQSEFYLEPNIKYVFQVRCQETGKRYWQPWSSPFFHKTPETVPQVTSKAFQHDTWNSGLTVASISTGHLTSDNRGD
Kind of experiment: antigen ELISA, human IL-23R-mouse Fc immobilized, HRP anti-human IgG, chemiluminescence. The procedure: (§1) The present inventors used an antigen ELISA to measure the antigen-specific binding activities of the fully human antibodies constructed in the above-described Example. A human or monkey IL-23R-Fc fusion protein was immobilized onto a Maxisorp 384-well plate (Nunc, Inc.) at a concentration of 500 ng/mL. A blocking agent (Blocking One; Nacalai Tesque, Inc.) was added thereto and allowed to stand at room temperature for 1 hour, followed by washing twice with a wash buffer [TPBS: 0.05% Tween-20-containing phosphate buffered saline (PBS)], and each of the purified antibody samples was suitably serially diluted and added thereto. Incubation was performed at room temperature for 1 hour, followed by washing four times with TPBS, and HRP-labeled anti-human IgG antibody (DAKO) which was 2000-fold diluted with dilution buffer (Blocking One which was two-fold diluted with PBS) was added as secondary antibody. Incubation was performed at room temperature for 1 hour, followed by washing four times with a washing buffer. […] of BM-chemiluminescence ELISA substrate (POD) (Roche Diagnostics) that is a reagent for detecting chemiluminescence was added thereto and the amount of chemiluminescence was measured with an EnVision counter (Perkin Elmer). Each of the antibodies was tested in duplicate, and the EC 50 was analyzed by curve fitting.
A general note: ELISA stands for enzyme-linked immunosorbent assay.

The target in experiment [3] is T3, monkey IL-23R-mouse Fc fusion protein (monkey; mouse).
T3 construct: extracellular domain; also called monkey IL-23R-Fc fusion protein
As to the kind of experiment: antigen ELISA, monkey IL-23R-mouse Fc immobilized, HRP anti-human IgG, chemiluminescence. As for the experimental part: as §1

Experiment [4] has as its target T2, human IL-23R-mouse Fc fusion protein. Kind of experiment: antigen ELISA, human IL-23R-mouse Fc immobilized, HRP anti-mouse Ig, chemiluminescence. The procedure:
(§2) The present inventors used an antigen ELISA to measure the antigen-specific binding activity of the antibody. The human or monkey IL-23R-Fc fusion protein was immobilized onto a Maxisorp 384-well plate (Nunc, Inc.) at a concentration of 500 ng/mL. A blocking agent (Blocking One; Nacalai Tesque, Inc.) was added thereto and allowed to stand at room temperature for 1 hour, followed by washing twice with a wash buffer [TPBS: a phosphate buffered saline (PBS) containing 0.05% Tween-20], and the purified antibody samples were suitably serially diluted and added thereto. Incubation was performed at room temperature for 1 hour, followed by washing four times with TPBS, and HRP-rabbit anti-mouse Ig antibody (DAKO) which was 2000-fold diluted with a dilution buffer (Blocking One which was two-fold diluted with PBS) was added. Incubation was performed at room temperature for 1 hour, followed by washing four times with a wash buffer. 40 μL of BM-chemiluminescence ELISA substrate (POD) (Roche Diagnostics), which is a reagent for detecting chemical luminescence, was added, and the amount of chemiluminescence was measured with an EnVision counter (Perkin Elmer). Each antibody was tested in duplicate and the EC50 was analyzed by curve fitting. […]

In experiment [5] the target is T3, monkey IL-23R-mouse Fc fusion protein. Kind of experiment: antigen ELISA, monkey IL-23R-mouse Fc immobilized, HRP anti-mouse Ig, chemiluminescence. The procedure: as §2

As usually defined, the EC50 is the concentration that produces a half-maximal response.

B1: fully human 25-3-1 (antibody, human IgG1, kappa, V domains shown)
VH: QVQLQESGPGLVKPSQTLSLTCSVSGGSIDSGDHYWTWIRQHPGKGLEWIGYIYSSGHTYYSPSLKSRVTISVDTSKNQFSLRLSSVTAADTAVYYCARVGDYEWFDTWGQGTLVTVSS
VL: DIVMTQSPDSLAVSLGERATINCKSSQTILYPSNNMNYLGWYQQRAGQSPRLLIYWASTRESGVPDRFSGSGSGTDFTLTISSLQAEDVAVYYCQQYYSSLPTFGQGTKVEIKR
notes: human Ig gamma1 / kappa
For the molecule B1, the “Human IL-23-inducible Kit-225 cell proliferation inhibitory activity, IC50” value in experiment [1] was determined as 0.00309 µg/mL. Further, the EC50 turned out to be 0.0176 µg/mL in experiment [2] and 0.0124 µg/mL in experiment [3].

B2: 25-3 (chimeric) (antibody, V domains shown)
VH: QVQLQESGPGQVKPSQTLSLTCSVSGGSIDSGDHYWTWIRQHPGEVLEWIGYIYSSGHTYYSPSLKSRLTMSLDTSKNQFSLRLSSVTAADTAVYYCARVGDYEWFDTWGQGTLVTVSS
VL: DIVMTQSPDSLAVSLGERATINCKSSQTILYPSNNMNYLGWYQQRAGQSPRLLIYWASTRESGVPDRFSGSGSGTDFTLTISSLQAEDVAVYYCQQYYSSLPTFGQGTKVEIKR
notes: also called antibody (chimeric antibody) named 25-3
For B2, the EC50 in experiment [4] is 0.021 µg/mL; in experiment [5], 0.028 µg/mL.

B3: fully human 25-3-3 (antibody, human IgG1, kappa, V domains shown)
VH: QVQLQESGPGLVKPSQTLSLTCSVSGGSISSGDHYWTWIRQHPGKGLEWIGYIYSSGHTYYSPSLKSRVTISVDTSKNQFSLRLSSVTAADTAVYYCARVGDYEWFDTWGQGTLVTVSS
VL: DIVMTQSPDSLAVSLGERATINCKSSQTILYPSNNMNYLGWYQQRAGQSPRLLIYWASTRESGVPDRFSGSGSGTDFTLTISSLQAEDVAVYYCQQYYSSLPTFGQGTKVEIKR
notes: human Ig gamma1 / kappa
As for B3, the “Human IL-23-inducible Kit-225 cell proliferation inhibitory activity, IC50” value in experiment [1] was determined as 0.00568 µg/mL. Further, the EC50 in experiment [2] came out at 0.0221 µg/mL; in experiment [3] it was 0.0121 µg/mL.

B4: fully human 25-3-4 (antibody, human IgG1, kappa, V domains shown)
VH: QVQLQESGPGLVKPSQTLSLTCSVSGGSISSGDHYWTWIRQHPGKGLEWIGYIYSSGHTYYSPSLKSRVTISVDTSKNQFSLRLSSVTAADTAVYYCARVGDYEWFDTWGQGTLVTVSS
VL: DIVMTQSPDSLAVSLGERATINCKSSQTILYPSNNMNYLGWYQQKPGQSPRLLIYWASTRESGVPDRFSGSGSGTDFTLTISSLQAEDVAVYYCQQYYSSLPTFGQGTKVEIKR
notes: human Ig gamma1 / kappa
As for B4, the “Human IL-23-inducible Kit-225 cell proliferation inhibitory activity, IC50” value in experiment [1] came out at 0.00348 µg/mL. In addition, the EC50 in experiment [2] worked out at 0.0223 µg/mL; in experiment [3], 0.0121 µg/mL.

B5: fully human 25-3-2 (antibody, human IgG1, kappa, V domains shown)
VH: QVQLQESGPGLVKPSQTLSLTCSVSGGSIDSGDHYWTWIRQHPGKGLEWIGYIYSSGHTYYSPSLKSRVTISVDTSKNQFSLRLSSVTAADTAVYYCARVGDYEWFDTWGQGTLVTVSS
VL: DIVMTQSPDSLAVSLGERATINCKSSQTILYPSNNMNYLGWYQQKPGQSPRLLIYWASTRESGVPDRFSGSGSGTDFTLTISSLQAEDVAVYYCQQYYSSLPTFGQGTKVEIKR
notes: human Ig gamma1 / kappa
Take B5: in experiment [1], the “Human IL-23-inducible Kit-225 cell proliferation inhibitory activity, IC50” value stood at 0.00266 µg/mL. For the same molecule, the EC50 in experiment [2] turned out to be 0.0164 µg/mL; in experiment [3], 0.0122 µg/mL.

B6: fully human 25-3 (antibody, human IgG1, kappa, V domains shown)
VH: QVQLQESGPGQVKPSQTLSLTCSVSGGSIDSGDHYWTWIRQHPGEVLEWIGYIYSSGHTYYSPSLKSRLTMSLDTSKNQFSLRLSSVTAADTAVYYCARVGDYEWFDTWGQGTLVTVSS
VL: DIVMTQSPDSLAVSLGERATINCKSSQTILYPSNNMNYLGWYQQRAGQSPRLLIYWASTRESGVPDRFSGSGSGTDFTLTISSLQAEDVAVYYCQQYYSSLPTFGQGTKVEIKR
notes: Human Ig gamma1 / human kappa constant regions; expressed in CHO-K1SV cells; also called fully human antibody of 25-3
For the molecule B6, the “Human IL-23-inducible Kit-225 cell proliferation inhibitory activity, IC50” value in experiment [1] was determined as 0.00225 µg/mL. Moreover, the figures for the EC50 in experiment [2] and in experiment [3] were 0.019 µg/mL and 0.0123 µg/mL, respectively.

For the origin of these results see patent US20150126713A1 (Astellas, published 2015).
